{"source": "patent US20210246195A1", "about": "(CZ BIOHUB SF, published 2021)", "binders": {"B1": {"name": "PA13P1H08 variant R-R (antibody, V domains shown)", "VH": "QVQLVESGGGVVQPGRSLRLSCAASGFTFSSYGMHWVRQAPGKGLEWVAVISYDGSNKYYADSVKGRFTISRDNSKNTLYLQMNSLRAEDTAVYYCAKVLDYSNYYYYYGMDVWGQGTTVTVSS", "VL": "not shown", "notes": "human IgG1, kappa; also called both chains reverted to the inferred naive rearrangement"}, "B2": {"name": "1003320107_F8 (antibody, V domains shown)", "VH": "EVQLVESGGGLVQPGGSLKLSCAASGFTFSGSTIHWVRQTSGKGLEWVGRIGSKATSYATAYAASVKGRFTISRDDSKNTAYLQMNSLKTEDTAVYFCTRRYYDTTKSVLVVSDSWGQGTLVTVSS", "VL": "SYELTQPPSMSVSPGQTARITCSGDVLAKQFAYWYQQKPGQAPVLVIYKDSERPSGIPERFSGSSSGTIITLTISGVQAEDEADYYCQSADSSGTSWVFGGGTKLTVL", "notes": "also called Clone 1003320107_F8"}, "B3": {"name": "1003320101_D6 (antibody, V domains shown)", "VH": "EVQLVASGGGLIHPGGSLRLSCEASGFSFSRFWMYWVRQSPGEGLVWVARLSGDGTVTNYADSMEGRVTISRDNVKNTLFLEMNSLREGDTGIYYCARKDCPSLSCQLDYWGQGVQVTVSS", "VL": "QSVLTQPPSVSAAPGQKVTISCSGSTSNIGKNYVSWYQHFPGAAPKLLIFDNDKRPSGIPDRFSGSRSGTSATLDITGLQTGDEADYFCATWDSRLSADVFGSGTTVSVL", "notes": "also called Clone 1003320101_D6"}, "B4": {"name": "1003320105_D6 (antibody, V domains shown)", "VH": "EVQLLESGGGLVQPGGSLRLSCAASGFNFSNFAVSWVRQTPGKGLEWVSAILGSRSVTYYADSVKGRFTISRDKSKNALYLQMDSLRAEDTAIYYCAKLFFMPYSHDDSGDYWGQGTLVAVSS", "VL": "QLVLTQSPSASASLGASVKLTCTLSSDHRSYAIAWHQQQPGKGPRYLMKVNRDGSHIKGDGIPHRFSGSSSVTERYLIISSLQSEDEADYYCQSWDTGIQVFGGGTRLTVV", "notes": "also called Clone 1003320105_D6"}, "B5": {"name": "1003320107_F3 (antibody, V domains shown)", "VH": "QVQLQESGPGLVKPSETLSLSCNVSGGSIRGHYWSWIRQSPGKRLEWLGYIYQSGYTKYNPSLKSRVSISLDTSKNKFSLNLKSVTTADTAVYYCAGRVAERGGDQFDFWGQGTLVTVSS", "VL": "SYELTQSPSLSVSPGQTASITCSGENLGEKHASWYQQKSGQSPVLVIYQDTKRPAGIPERFSGSNSGSTATLTISGTQPMDEADYFCQAWDANTANVIFGGGTMLTVL", "notes": "also called Clone 1003320107_F3"}, "B6": {"name": "PA15P1D05 (antibody, human IgG1, V domains shown)", "VH": "QVHLVESGGGVVQPGRSLGLSCVASGFTFNYYAIHWVRQAPGKGLEWVAVVSFDGNIIYYADSVKGRFNISRDNSKNTVNLQMNSLRPDDTAVYYCVRDGEYCSGGNCYWGDFDHWGQGSLVTVSP", "VL": "EIVLTQSPATLSLSPGERATLSCRASQSISSEYLTWFQQKPGQAPRLLIYGAFNRATGIPDRFSGSGSGTDFTLTISSLEPEDFAVYYCQQYANWWTFGQGTKVEIK", "notes": "human IgG1; also called CF3 IgE PB antibody"}, "B7": {"name": "PA15P1D12 (antibody, human IgG1, V domains shown)", "VH": "B6 VH with V23A, P88A, H115Y, S120T", "VL": "B6 VL with A9G", "notes": "human IgG1; also called CF3 IgG4 PB antibody"}, "B8": {"name": "1003320107_C5 (antibody, V domains shown)", "VH": "QVQLQESGLGLVKPSGTLSLTCAVSGGPMNSSYWWSWVRQSPGGGLEWIGQISHYTNTKYNPSFKNRVSISIDKSKNEFSLRLTYVTGADTGVYYCVGERDWKDPNWFDPWGQGRLVTVSS", "VL": "QSVLTQPPSVSGAPGQRVTISCTGSNSNIGAGQDVHWYQHFPGTAPKLVIYGNSNRPSGVPDRFSGSKSGTSASLAISGLQADDEADYYCQSYDKSLSSSLFGGGTKLTVL", "notes": "also called Clone 1003320107_C5"}, "B9": {"name": "PA13P1H08 (antibody, human IgG1, V domains shown)", "VH": "QVQLVNSGGGVVQPGRSLRLSCVASGFTFSTFGIHWVRQAPGKGLEWVAVISNDGEKSESADSVKGRFTPSRDNSKNTVYLQMNNLRVEDTAVYYCAKVLDYSRYSYYYGMDVWGQGTTVIVSS", "VL": "EIVLTQSPGTLSLSPGGRGTLSCRTSQTINNAHLAWYQHKPGQAPRLLIYGSSERATGVPDRFSGSGSGSDFTLTISSLEAEDFAVYYCQHYGRSPPYTFGPGTKLDIK", "notes": "human IgG1, kappa; also called Clone PA13P1H08; N-N"}, "B10": {"name": "PA13P1H08 variant R-N (antibody, human IgG1, V domains shown)", "VH": "B1 VH", "VL": "B9 VL", "notes": "human IgG1, kappa; also called reverted heavy chain, native light chain"}, "B11": {"name": "PA13P1H08 variant N-R (antibody, V domains shown)", "VH": "B9 VH", "VL": "not shown", "notes": "human IgG1, kappa; also called native heavy chain, reverted light chain"}, "B12": {"name": "PA13P1H08 variant with native heavy chain and light chain swapped with another kappa light chain (antibody, human IgG1, V domains shown)", "VH": "B9 VH", "VL": "EIVLTQSPATLSLSPGERATLSCRASQSVSSYLAWYQQKPGQAPRLLIYDASNRATGIPARFSGSGSGTDFTLTISSLEPEDFAVYYCQQRSNWPPGFTFGPGTKVDIK", "notes": "human IgG1, kappa"}, "B13": {"name": "PA13P1H08 variant rFWRs-N (antibody, human IgG1, V domains shown)", "VH": "B1 VH with S31T, Y32F, Y53N, S56E, N57K, K58S, N104R, Y106S", "VL": "B9 VL", "notes": "human IgG1, kappa; also called heavy chain framework regions reverted"}, "B14": {"name": "PA13P1H08 variant rCDR3-N (antibody, human IgG1, V domains shown)", "VH": "B9 VH with R104N, S106Y", "VL": "B9 VL", "notes": "human IgG1, kappa; also called heavy chain CDR3 reverted"}}, "key": {"[1]": {"target": "T1, Ara h 3 (purified natural peanut allergen) (Arachis hypogaea)", "T1 construct": "mature; bought natural protein; also called natural Ara h 3; NA-AH3-1", "experiment": "BLI, antibody on anti-human IgG Fc sensors, Ara h 3 as analyte, top 128 nM"}, "[2]": {"target": "T2, BSA (UniProt P02769 25-607)", "T2 construct": "also called bovine serum albumin; immobilized BSA", "T2 sequence (P02769 25-607 limits assumed)": "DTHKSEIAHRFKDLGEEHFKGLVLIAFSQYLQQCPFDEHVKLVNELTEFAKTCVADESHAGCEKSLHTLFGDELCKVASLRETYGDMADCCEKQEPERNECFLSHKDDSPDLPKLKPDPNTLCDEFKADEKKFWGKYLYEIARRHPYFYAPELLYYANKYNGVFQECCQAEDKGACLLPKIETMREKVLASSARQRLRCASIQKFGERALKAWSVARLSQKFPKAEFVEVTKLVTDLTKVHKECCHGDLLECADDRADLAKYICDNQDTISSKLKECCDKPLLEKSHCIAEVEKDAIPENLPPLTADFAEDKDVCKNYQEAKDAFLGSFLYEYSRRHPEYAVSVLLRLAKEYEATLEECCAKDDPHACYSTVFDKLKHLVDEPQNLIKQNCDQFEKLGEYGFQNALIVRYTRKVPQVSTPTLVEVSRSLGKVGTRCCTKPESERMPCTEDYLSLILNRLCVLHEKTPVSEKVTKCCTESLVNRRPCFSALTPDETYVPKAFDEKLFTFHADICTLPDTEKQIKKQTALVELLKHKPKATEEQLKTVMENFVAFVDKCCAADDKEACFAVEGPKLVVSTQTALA", "experiment": "indirect ELISA, OD heat map"}, "[3]": {"target": "T3, Ara h 1 (purified natural peanut allergen) (Arachis hypogaea, UniProt P43238 26-626)", "T3 construct": "mature; bought natural protein; also called natural Ara h 1; NA-AH1-1", "T3 sequence (looked up)": "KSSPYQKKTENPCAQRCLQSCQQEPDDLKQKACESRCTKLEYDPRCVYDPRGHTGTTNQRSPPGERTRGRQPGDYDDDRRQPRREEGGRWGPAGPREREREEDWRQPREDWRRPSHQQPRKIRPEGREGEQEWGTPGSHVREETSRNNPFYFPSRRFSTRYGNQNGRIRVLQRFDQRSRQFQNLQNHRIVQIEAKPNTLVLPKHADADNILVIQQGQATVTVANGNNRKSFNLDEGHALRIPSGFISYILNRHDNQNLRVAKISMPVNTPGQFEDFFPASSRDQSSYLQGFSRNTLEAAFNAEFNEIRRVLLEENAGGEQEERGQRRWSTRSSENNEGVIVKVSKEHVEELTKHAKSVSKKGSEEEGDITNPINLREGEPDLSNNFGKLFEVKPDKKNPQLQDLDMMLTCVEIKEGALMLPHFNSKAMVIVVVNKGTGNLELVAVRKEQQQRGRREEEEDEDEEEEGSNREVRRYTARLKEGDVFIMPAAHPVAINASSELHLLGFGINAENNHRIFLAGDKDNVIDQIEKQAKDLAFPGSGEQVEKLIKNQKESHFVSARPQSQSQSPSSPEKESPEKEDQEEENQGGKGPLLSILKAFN", "experiment": "indirect ELISA, OD heat map"}, "[4]": {"target": "T1, Ara h 3 (purified natural peanut …)", "experiment": "BLI, scatter plot of KDs; the diamond lies on the axis line labelled >10^-7"}, "[5]": {"target": "T2, BSA", "experiment": "indirect ELISA, OD heat map", "remark": "listed apart in the source"}, "[6]": {"target": "T4, purified recombinant allergen Aspergillus fumigatus 1 (rAsp f 1) (Aspergillus fumigatus, UniProt P67875 28-176)", "T4 sequence": "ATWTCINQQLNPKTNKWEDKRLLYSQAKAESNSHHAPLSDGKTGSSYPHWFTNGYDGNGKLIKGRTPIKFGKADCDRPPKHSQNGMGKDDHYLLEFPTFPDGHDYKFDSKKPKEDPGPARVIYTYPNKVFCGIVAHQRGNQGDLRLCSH", "experiment": "indirect ELISA, OD heat map"}, "[7]": {"target": "T4, purified recombinant allergen …", "experiment": "indirect ELISA (FIG. 19)"}, "[8]": {"target": "T3, Ara h 1 (purified natural peanut …)", "experiment": "indirect ELISA"}, "[9]": {"target": "T1, Ara h 3 (purified natural peanut …)", "experiment": "BLI, antibody on anti-human IgG Fc sensors, Ara h 3 as analyte, top 512 nM"}, "[10]": {"target": "T1, Ara h 3 (purified natural peanut …)", "experiment": "BLI, antibody on anti-human IgG Fc sensors, Ara h 3 as analyte, top 16 nM"}, "[11]": {"target": "T1, Ara h 3 (purified natural peanut …)", "experiment": "BLI, antibody on anti-human IgG Fc sensors, Ara h 3 as analyte, top 32 nM"}, "[12]": {"target": "T1, Ara h 3 (purified natural peanut …)", "experiment": "BLI, antibody on anti-human IgG Fc sensors, Ara h 3 as analyte, top 64 nM"}, "[13]": {"target": "T1, Ara h 3 (purified natural peanut …)", "experiment": "BLI, antibody on anti-human IgG Fc sensors, Ara h 3 as analyte, top 16 nM", "remark": "listed apart in the source"}}, "note": "Positions count from the first letter of the chain named. Where two headings read alike, the source gives them in different places.", "data": [{"binder": "B1", "values": [{"measurement": "Kd", "setting": "[1]", "value": "> 100", "unit": "nM"}, {"measurement": "binding result", "setting": "[2]", "value": "no binding (tested: 2 ng/µL)"}, {"measurement": "binding result", "setting": "[3]", "value": "no binding (tested: 2 ng/µL)"}, {"measurement": "Kd", "setting": "[4]", "value": "> 100", "unit": "nM"}]}, {"binder": "B2", "values": [{"measurement": "binding result", "setting": "[5]", "value": "no binding (tested: 2 ng/µL)"}, {"measurement": "binding result", "setting": "[6]", "value": "no binding (tested: 2 ng/µL)"}]}, {"binder": "B3", "values": [{"measurement": "binding result", "setting": "[5]", "value": "no binding (tested: 2 ng/µL)"}, {"measurement": "binding result", "setting": "[6]", "value": "no binding (tested: 2 ng/µL)"}]}, {"binder": "B4", "values": [{"measurement": "binding result", "setting": "[5]", "value": "no binding (tested: 2 ng/µL)"}, {"measurement": "binding result", "setting": "[6]", "value": "no binding (tested: 2 ng/µL)"}]}, {"binder": "B5", "values": [{"measurement": "binding result", "setting": "[5]", "value": "no binding (tested: 2 ng/µL)"}, {"measurement": "binding result", "setting": "[7]", "value": "binds"}]}, {"binder": "B6", "values": [{"measurement": "binding result", "setting": "[8]", "value": "no binding"}, {"measurement": "Kd", "setting": "[9]", "value": 2, "unit": "nM"}]}, {"binder": "B7", "values": [{"measurement": "binding result", "setting": "[8]", "value": "no binding"}, {"measurement": "Kd", "setting": "[9]", "value": 1.1, "unit": "nM"}]}, {"binder": "B8", "values": [{"measurement": "binding result", "setting": "[5]", "value": "no binding (tested: 2 ng/µL)"}, {"measurement": "binding result", "setting": "[7]", "value": "binds"}]}, {"binder": "B9", "values": [{"measurement": "binding result", "setting": "[2]", "value": "no binding (tested: 2 ng/µL)"}, {"measurement": "Kd", "setting": "[10]", "value": 0.3, "unit": "nM"}]}, {"binder": "B10", "values": [{"measurement": "binding result", "setting": "[2]", "value": "no binding (tested: 2 ng/µL)"}, {"measurement": "Kd", "setting": "[11]", "value": 0.89, "unit": "nM"}]}, {"binder": "B11", "values": [{"measurement": "binding result", "setting": "[2]", "value": "no binding (tested: 2 ng/µL)"}, {"measurement": "binding result", "setting": "[3]", "value": "no binding (tested: 2 ng/µL)"}, {"measurement": "Kd", "setting": "[12]", "value": 7.4, "unit": "nM"}]}, {"binder": "B12", "values": [{"measurement": "binding result", "setting": "[2]", "value": "no binding (tested: 2 ng/µL)"}, {"measurement": "binding result", "setting": "[3]", "value": "no binding (tested: 2 ng/µL)"}]}, {"binder": "B13", "values": [{"measurement": "binding result", "setting": "[2]", "value": "no binding (tested: 2 ng/µL)"}, {"measurement": "Kd", "setting": "[11]", "value": 3.2, "unit": "nM"}]}, {"binder": "B14", "values": [{"measurement": "binding result", "setting": "[2]", "value": "no binding (tested: 2 ng/µL)"}, {"measurement": "Kd", "setting": "[13]", "value": 0.29, "unit": "nM"}]}]}
